This passage reports amyloid nucleation score results from the supplement of paper PMC12042874.

± gives the uncertainty stated by the source.

This data set in a line: amyloid nucleation score (Sup35N fusion, yeast selection) (log enrichment); library NNK2; higher = more nucleation; inactive = no reads after selection. An outline of the steps:
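Plasmid inserts were Illumina-sequenced at input and output from psi-negative yeast expressing Sup35N fused to peptides of 20 random codons. The yeast were induced with 100 μM copper sulfate for 24 hours and grown 7 days at 30°C on medium lacking adenine and uracil, and sequences with under 100 input reads were excluded. Nucleation score is the DiMSum log enrichment of output over input reads, centred on the mode score of non-aggregating sequences.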

Substance CYTDTMARK had an amyloid nucleation score of 4.15 ± 0.047.
With GMSSIINVELAGQWTWVKFN, the amyloid nucleation score amounted to 4.18 ± 0.066.
With IDNSTMDTCIMNRSQFTIRL the figure was -0.412 ± 0.54; with QLNVSLNRLFLCGGSAELPS, 7.55 ± 0.076.
With TSFSG the figure was 0.56 ± 0.38.
With ACSVNCLRECNR the entry was “inactive”.
Substance FLITCQLESTLYQW displayed an amyloid nucleation score of -0.334 ± 0.64.
WLCVRNVLMCQW yielded an amyloid nucleation score of 7.037 ± 0.042.
The substance SGRLNVSLLGVDSFYTELCA showed an amyloid nucleation score of -0.787 ± 0.54.
With TLCMRLN the figure was 1.64 ± 0.086; with VVHGIETIIVDPDRALVGDG, -0.356 ± 0.32.
Then FLNYVGDGIIEI, with -0.835 ± 0.48; and NFVNSFRVPISVYKVYLYGG, with 4.49 ± 0.08.
Then TYVMPSVVIKNCH, with -0.267 ± 0.79.
The substance PNQISNA showed an amyloid nucleation score of -0.47 ± 1.1.
With SRLAY the entry was “inactive”; with LTIVWLVVVYGLWGVSTFSL, “inactive”; with YFGGLANKMLILSWR, 0.294 ± 0.24.
With FLIEFLWSMSACSAPVFLVF the figure was -1.41 ± 1.1; with RCGSHMNLRYISAR, 4.398 ± 0.04; with EVDVIS, -0.885 ± 0.64.
With LSNAYRTGFPLICSLNNHRH the figure was 1.03 ± 0.68; with QSKYVSDPSPPETR, 1.48 ± 0.32; with LKIQEPNRYW, -0.945 ± 0.76.
For the substance AEYIWWMVPVMKELVNEV, the amyloid nucleation score turned out to be 0.362 ± 0.38.
TRRARSDSDLMCRDRVSVDN yielded an amyloid nucleation score of -0.249 ± 0.35.
WMRSIWLSQHFLS came in with an amyloid nucleation score of 0.292 ± 0.41.
Then YDVNGLFTITNPAANYMKPT, with -1.3 ± 0.34.
With VFGYTSRR the figure was 3.49 ± 0.057; with FMGTLNRELYTGRYGVG, -0.243 ± 1.
YGFEAFWDNLQPAFTVPRVM: the amyloid nucleation score result was “inactive”.
Consider YAMGGGKGEDDLSCWYDYAC, for which the amyloid nucleation score was 0.219 ± 0.47.
Then QSTYCQRRCVC, with 0.042 ± 0.63; and LSNLEAEAWMRAYCIRVKIT, with 2.16 ± 0.1.
For the substance HTFYVNKLPLPKL, the amyloid nucleation score is 0.875 ± 0.45.
Then FLVLVTFKFRAQTDFLSSWN, with -0.884 ± 0.78; and SPTNIRP, with -0.185 ± 0.47.
Then ETFNCNFVWL, with 4.83 ± 0.1; and HYWNWYVEL, with 4.582 ± 0.037.
The substance LRGSFNLVSYFTQLRSCDYF yielded an amyloid nucleation score of -1.27 ± 0.78.
With RYCVDNW the figure was 0.122 ± 0.41; with FDFRNGCGNTKVEFSMHRSG, 2.86 ± 0.21.
With SWVRVTSPSIATFSATYCVL the figure was 0.619 ± 0.81.
SDGSGNGEWSEMQVLWTRSN: the amyloid nucleation score is 1.07 ± 0.33.
RGCMEVWVLYQSNALSM gave an amyloid nucleation score of 4.18 ± 0.071.
VLAARVTTYHLCVSEDVVTL: the amyloid nucleation score turned out to be 2.9 ± 0.15.
Turning to ILWLTADFTLLISNYMCLS, the amyloid nucleation score entry was “inactive”.
Then IMRMNVMCGVRYPYALFALL, with “inactive”; and MTSENNWPNYTGLAPTPPAA, with 1.32 ± 0.18; and VRLFVFSKVKGLIMVNCSWK, with -1.35 ± 0.44.
With FRNSTATLYSVGSFTSKTQL the figure was 1.03 ± 0.19; with ALISSPANCAISWITCILVV, 5.947 ± 0.034; with LKLCLRCSNIVLPD, -0.434 ± 0.3.
With VALMYFRFQKFDSSSSMHRF the figure was 2.5 ± 0.18; with IYLSLATCSGRRRSYSKPSR, 0.645 ± 0.47.
For the substance TSECPVWNSFYVQNGSDLSI, the amyloid nucleation score is 1.34 ± 0.14.
Then NCPRWICAILYEYHAVRRRV, with 0.713 ± 0.49; and RCTGVMPV, with -0.072 ± 1.1; and TRCGE, with -0.134 ± 0.25.
As to LHRTLSRRTEVR, the amyloid nucleation score worked out at 3.54 ± 0.086.
With CYAPKYGRHWP the figure was 0.708 ± 0.49.
Consider VANNTGAKSYVFMARNAMCF, for which the amyloid nucleation score was -0.602 ± 0.49.
Then YFGCQMMSN, with 0.459 ± 0.54.
With SDLANTLEPELQAFVIQ the figure was -0.029 ± 0.61; with PRRVDRW, 0.339 ± 0.2.
With VRVEERSVTAYRFMTKPAWW the figure was 4.88 ± 0.096; with IWSYLRSSASWPMNASNTSA, 0.905 ± 0.34; with LNNLLS, 0.315 ± 0.46.
On to HNPLS, for which the amyloid nucleation score entry is “inactive”.
Then LTLLHFRREDTHCSGTGTPC, with 1 ± 0.2.
Then YQSPCVTVVSGKRALPRGGR, with -0.001 ± 0.28; and SSVLPGVRPGWNTMWWAACL, with 0.844 ± 0.39.
With AISPVLC the figure was 1.9 ± 0.43; with PFCPFSEAVWMSTITLQHEG, -0.054 ± 0.32; with GWVKDDWDFTLMRPRFVGRG, -0.143 ± 0.76.
Turning to HLPFMHPRPANLSHNKTSVS, the amyloid nucleation score was -0.766 ± 0.4.
With NDCMGWH the entry was “inactive”; with VLFDGKPMEVFFWCLPEWVF, “inactive”.
With NDLSNGSVESMRQYYYLREN the figure was -0.724 ± 0.3; with GDQPRPKMLLSWHRFLLQQS, 0.887 ± 0.19; with VCYKYRTCYIYISFRSNFST, -1.04 ± 1.1.
Then VISNHPETTDTNRVLLYVLG, with 0.411 ± 0.53; and AGSARRLGLMPRGSGYALGW, with 1.44 ± 0.17; and VEAWGP, with -0.948 ± 0.45.
HLWFEDAQFAIAKFKCGGKR displayed an amyloid nucleation score of 6.16 ± 0.086.
With TYVYKYLFWSIPCMA, the amyloid nucleation score came out at 0.715 ± 0.66.
With RWLDSERRTTRHLCSRGYST the figure was 1.24 ± 0.38; with FSSSYP, “inactive”; with TCVVSTYLINIQKNVASFER, 6.816 ± 0.041.
Then IDLSTMTAGTCISYCVYCRI, with 5.25 ± 0.1; and RDMHLGRTEFVARYWELFRY, with -0.473 ± 0.78.
Then YFWLVFLKKHRQGLEGKGGW, with 0.004 ± 0.62.
KSETAVRVNGYGAKIQE showed an amyloid nucleation score of -0.224 ± 0.79.
Then HNNCNRFCQSIVLH, with 6.34 ± 0.078; and HSGLSGTILGWLIFKVEGEE, with 0.007 ± 0.42.
With ISRVSGGQTLPSGLVMG the figure was -0.326 ± 0.45.
Then LYRFAMLLRLGARSVNMLGK, with -0.573 ± 1.1; and GKHIGSLSEWTMVHHDGARR, with 1.21 ± 0.32; and LCMKYGVCVYVLFGWCKYTV, with -0.068 ± 0.79.
Substance YMFNSWYGLSSLWGKSKKMS gave an amyloid nucleation score of -0.538 ± 0.26.
Then RDARNKFCDGLTVGILGACM, with -0.368 ± 0.29; and FLSYYFGPFRELVF, with -0.287 ± 0.56; and KHCIIRFIKLGLGKKLKQPV, with -1.02 ± 0.36.
With GISRGLILEVTC the figure was 1.12 ± 0.43.
Then IVFYMSS, with 1.53 ± 0.095; and NSLRCSLIWMGQLPLSGTHV, with “inactive”; and CEGNGVFYGLPYSGSDIPNR, with -0.719 ± 0.61.
Turning to AGKFSWDNPYILLVNTI, the amyloid nucleation score entry was “inactive”.
As for YVWSAKHSNIDCRVES, the amyloid nucleation score amounted to 0.877 ± 0.36.
Substance HFIKKGDYNKTTKYSPCNEL gave an amyloid nucleation score of -0.941 ± 0.45.
Substance VRIFSVCYKHLMGHCSSSA registered an amyloid nucleation score of -0.398 ± 0.31.
Then EPCNTNIK, with -0.553 ± 0.29; and KRSLIINGAATT, with 1.61 ± 0.26.
With GGISNVCLSYVRFQEFVFNV the figure was 5.69 ± 0.093; with GITSFDTIYCGRVVYQRWLL, 0.578 ± 0.81.
Then AMYIIAFSPTK, with 1.36 ± 0.67.
On to HRMNGFDLLMLVCKKCIDFC, for which the amyloid nucleation score result was “inactive”.
Substance AMFSEVYASHQVVPYPLSLS came in with an amyloid nucleation score of 0.746 ± 0.62.
Then GCYRLNSLYATIQLRLLSWW, with -0.46 ± 1.1; and RSNNTIFGKLFSGAILLCWV, with -1.2 ± 1.
With NSASLFFS the figure was 0.27 ± 0.17; with KTFTWHIVRLYYKYPPMPKV, “inactive”; with IVLYVHTTLLAGS, 4.6 ± 0.091.
With IVSAMQLEHESQCKFGMNWV the figure was 0.082 ± 0.42; with MNSIKMEGVRYNNPNDYTFC, -1.14 ± 1.1; with RWVRA, 1.18 ± 0.21.
On to EDSPKFKGGPGIYHSVVLVG, for which the amyloid nucleation score stood at 0.394 ± 0.27.
With TELHLTDFWLRIMRQLFRFS the figure was 1.61 ± 0.52; with AEYKCAFFMSLNAVALDKRY, 3.2 ± 0.12.
Then GFWKTYNTFVLSWSRTNCLQ, with 0.431 ± 0.64; and KVGDQLQLRTSATV, with 0.459 ± 0.22; and VLIVFNNPCFMGWALVDVVL, with 8.194 ± 0.053.
As to HFENLTHYTIVSTFFSLGVP, the amyloid nucleation score entry was “inactive”.
Then DEGVPSGYVTAL, with -0.354 ± 0.76; and DYWLMEWMRYVHRLVGNCWY, with -0.959 ± 1.1; and YYQYGWEYARLWLIDNILHG, with -0.064 ± 1.1.
With LVKLEKHRLKVVNDYNSFEG the entry was “inactive”.
With NLRSLECLCMRCK the figure was -0.145 ± 0.79; with CRNLPGVCEMPSGVANYRVL, -0.547 ± 1.1; with WLVMEATLAFIRYTRGSFSL, -0.432 ± 1.1.
